Tests used:
Assay in all cases: cell-based or functional assay
[1] = biological target: SARS-CoV-2 S蛋白突变株F342L (SARS-CoV-2, UniProt P0DTC2 14-1273)
[2] = biological target: SARS-CoV-2 S蛋白突变株T376A (SARS-CoV-2, UniProt P0DTC2 14-1273)
[3] = biological target: SARS-CoV-2 S蛋白突变株E309D (SARS-CoV-2, UniProt P0DTC2 14-1273)
[4] = biological target: SARS-CoV-2 S蛋白突变株A372T (SARS-CoV-2, UniProt P0DTC2 14-1273)
[5] = biological target: SARS-CoV-2 S蛋白突变株P491A (SARS-CoV-2, UniProt P0DTC2 14-1273)

Measured: 假病毒中和 IC50 (Huh-7细胞, 荧光素酶)

B1: 全人源新型冠状病毒单抗REGN10989 (antibody, V domains shown)
VH: QVQLVQSGAEVKKPGASVKVSCKASGYIFTGYYMHWVRQAPGQGLEWMGWINPNSGGANYAQKFQGRVTLTRDTSITTVYMELSRLRFDDTAVYYCARGSRYDWNQNNWFDPWGQGTLVTVSS
VL: QSALTQPASVSGSPGQSITISCTGTSSDVGTYNYVSWYQQHPGKAPKLMIFDVSNRPSGVSDRFSGSKSGNTASLTISGLQAEDEADYYCSSFTTSSTVVFGGGTKLTVL
> 50 µg/mL: [1] | [2] | [3] | [4] | [5]

From CN113173995A (SHANGHAI PUBLIC HEALTH CLINICAL CT, dated 2021)
